Laboratory results published in article PMC3496724.
pKd: −log10 of the molar value.

How the values were obtained:
[1] = target: HIV-1 Tat protein (wild type, biologically active) (HIV-1 (human T lymphotropic virus type IIIB-BH-10, subtype B)) (UniProt P04610); assay: SPR; BIACORE 3000; Tat immobilised by amine coupling on a CM3 chip; Env (5–1,000 nM) flowed in PBS pH 7.4 with 0.2% Tween 20, 300 mM NaCl, 5 mg/mL dextran; blank reference surface subtracted; single-site model
[2] = target: HIV-1 Tat protein (wild type, biologically active) (HIV-1 (human T lymphotropic virus type IIIB-BH-10, subtype B)) (UniProt P04610); assay: ITC; VP-ITC; Tat (1.25 to 4.4 µM) in the cell, trimeric Env (12.5 to 47.0 µM in protein subunit) in the syringe; PBS pH 7.4

| Substance | pKd [1] | T1/2 (complex dissociation half life) [1] [min] | koff [1] [s⁻¹] | kon [1] [M⁻¹ s⁻¹] | pKd [2] | stoichiometry N (Tat per gp120 subunit) [2] |
| --- | --- | --- | --- | --- | --- | --- |
| monomeric ΔV2 Env (clade B, HIV-1 SF162) (natural protein) | 7.04 | 23 | 0.00049 | 5900 | – | – |
| trimeric wt Env (clade B, HIV-1 SF162) (natural protein) | 7.42 | 23 | 0.00049 | 14000 | 6.95 | 1 |
| trimeric ΔV2 Env (clade B, HIV-1 SF162) (natural protein) | 7.66 | 230 | 5e-05 | 2600 | – | – |
